Substitutions are numbered along the chain they refer to. Names may count otherwise.
B1: P-PR-C07H (antibody, V domains shown)
VH: EVQLQQSGAELVRPGTSVQISCKASGYTFTNNWLAWIKQRPGHGLEWIGDIYPGGVYTNYNEKFKGKATLTADTSSSTAYMQLSSLTSEDSAVYFCYYGDFWSAYWGQGTLVTVSA
VL: DIVMTQAAPSVPVTPGESVSISCRSSKSLLHSNGNTYLYWFLQRPGQSPQLLIYRMSNLASGVPDRFSGSGSGTAFTLRISRVEAEDVGVYYCMQHLEYPLTFGAGTKLELK
B2: P-PR-C08H (antibody, V domains shown)
VH: QVQLQQPGSELVRPGASVKLSCKASGFTFTTYWVHWVKQRPGQGLEWIGNISPGSGSTNYDEKFKSKASLTVDTFSNTAYMQLSSLTSEDSAVYYCIRHSGNYFNAMDYWGQGTTVTVSS
VL: B1 VL
B3: P-PR-C02H (antibody, V domains shown)
VH: B2 VH with K19R, T115S
VL: B1 VL with A8T, T14A, S32T, N35Y
B4: P-PR-D01H (antibody, V domains shown)
VH: B2 VH with S55G, S84G, V116L
VL: B1 VL
B5: P-PR-B09W (antibody, V domains shown)
VH: B2 VH with Y32F, S55G, G56T, T115S
VL: B1 VL
B6: P-PR-G02W (antibody, V domains shown)
VH: B2 VH with V116L
VL: B1 VL
B7: P-PR-C04W (antibody, V domains shown)
VH: B2 VH
VL: B1 VL
B8: P-PR-D06H (antibody, V domains shown)
VH: B2 VH with Y32F, G56T, D61N, S66N, V116L
VL: B1 VL with S20T, N35K, R55W, L101F, A105V
B9: H-PR-B03 (antibody, V domains shown)
VH: QVQLKESGPGLVAPSQSLSITCTVSGFSLTGFGVNWFRQPPGRGLEWLGMIWGDGSTDYNSALKSRLSISKDNSKSQVFLKMNSLQTDDTARYYCARVLYYYGGNSFAYWGQGTLVTVSA
VL: DVLMTQTPLSLPVSLGDQASISCRSSQSIVHSNGNTYLEWYLQKPGQSPKLLIYKVSSRFSGVPDRFSGSGSGTDFTLKISRVEAEDLGVYYCFQGSHVPYTFGGGTKLEIK
B10: H-PR-B06 (antibody, V domains shown)
VH: DVKLVESGGGLVKPGGSLKLACAASGFTFSSYTMSWVRQTPEKRLEWVATISSGGSYTYYPDSVKGRFTISRDNAKNTLYLQLSSLKSEDTAMYYCTRDRYYSTTPDWYFDVWGAGTTVTVSS
VL: DIVLTQSPATLSVTPGDSVSLSCRATQIIFNNLHWYQQKSHESPRLLITYTSQSISGIPSRFSGSGSGTDFTLTINSVETEDFGMYFCQQSNTWPRTFGGGTKLEIK
B11: HP-PR02E11 (antibody, V domains shown)
VH: QVQLQQSGPGLVAPSQSLSITCTVSGFSLTSYGVNWVRQPPGKGLEWLGIIGAGGSTNYNSALMSRLSISKDNSKSQVFLKMNSLQTDDTAMYYCARSLYYYGSSSFAYWGQGTLVTVSA
VL: B9 VL with V2I, L3V, S58N, Y101W, I111L
B12: HP-PR02H02 (antibody, V domains shown)
VH: B10 VH with D1E, K3M, V119L
VL: B10 VL with L4I
B13: HP-PR01C02 (antibody, V domains shown)
VH: DVHLVESGPGLVKPSQSLSLTCTVTGYSITSDYAWNWIRQFPGNKLEWMGYISYSGSTGYSPSLKSRVSITRDTSKNQFFLQLNSVTTEDTATYFCARNNWAFDFWGQGTTLTVSS
VL: DIVLTQSPAIMSASPGEKVTMTCSASSSVNYMHWYQQKSGTSPKRWIYDTSKLASGVPARFSGSGSGTSYSLTISSMEAEDAATYYCQQWSSNPLTFGAGTKLELK
B14: HP-PR01B01 (antibody, V domains shown)
VH: EVHLVESGPDLVKPSQSLSLTCTVTGYSITSGYNWHWIRQFPGNKLEWMGYIHYSGSTKYDPSLKSRISFTRDTSRNQFFLQLNSVTTEDRATYYCARSEAGGYSWFAYWGQGTLVTVSA
VL: B13 VL with L4M, T22A

Columns and labels:
Experiment in all cases: ELISA, coated antigen 1 ug/mL, antibody 10 ug/mL
[1] = target: murine PRLR extracellular domain (mouse) (UniProt Q08501)
Sequence of murine PRLR extracellular domain (mouse) (Q08501 20-229): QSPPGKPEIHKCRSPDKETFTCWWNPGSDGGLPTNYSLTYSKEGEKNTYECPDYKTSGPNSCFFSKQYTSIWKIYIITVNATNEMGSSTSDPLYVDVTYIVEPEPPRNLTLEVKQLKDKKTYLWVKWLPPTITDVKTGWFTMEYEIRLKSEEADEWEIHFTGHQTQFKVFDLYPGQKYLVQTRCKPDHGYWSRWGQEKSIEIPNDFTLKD

[2] = target: extracellular segment of the PRLR protein of cynomolgus monkey with avi-(his)6 tag (cynoPRLR-ECD-avi-his) (cynomolgus monkey)
Sequence of extracellular segment of the PRLR protein of cynomolgus monkey with avi-(his)6 tag (cynoPRLR-ECD-avi-his) (cynomolgus monkey) (chain, as listed by the source limits assumed): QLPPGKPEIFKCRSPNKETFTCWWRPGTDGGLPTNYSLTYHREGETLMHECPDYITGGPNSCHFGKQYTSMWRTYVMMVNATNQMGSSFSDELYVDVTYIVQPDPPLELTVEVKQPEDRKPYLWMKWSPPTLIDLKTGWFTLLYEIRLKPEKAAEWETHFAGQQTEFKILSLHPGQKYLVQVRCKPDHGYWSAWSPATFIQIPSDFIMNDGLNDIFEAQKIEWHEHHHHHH

[3] = target: extracellular segment of human PRLR protein with avi-(his)6 tag (hPRLR-ECD-avi-his) (human) (UniProt P16471)
Sequence of extracellular segment of human PRLR protein with avi-(his)6 tag (hPRLR-ECD-avi-his) (human) (P16471 other isoform, or with tags, fused parts or gaps): as the sequence (chain, as listed by the source limits assumed) above, with V76I, T110A, M125I, T158I, I207T counted along it

Binder | absorbance at 450nm [1] | absorbance at 450nm [2] | absorbance at 450nm [3]
B1 | 0.102 | 2.16 | 
B2 | 0.094 | 2.25 | 
B3 | 0.115 | 2.3 | 
B4 | 0.118 | 2.37 | 
B5 | 0.141 | 2.51 | 
B6 | 0.09 | 2.51 | 2.25
B7 | 0.09 | 2.25 | 2.16
B8 | 2.52 | 2.51 | 
B9 | 0.382 | 3.75 | 4
B10 | 0.334 | 0.435 | 3.94
B11 | 3.44 | 3.65 | 3.91
B12 | 0.223 |  | 3.12
B13 | 0.273 | 1.52 | 1.45
B14 | 0.161 |  | 0.638
